Measurements: patent US20210388087A1 (Chugai, published 2021)
Substitutions are numbered along the chain they refer to. Names may count otherwise.

T1: Human CD3eg linker (human)
T1 construct: Single chain: epsilon and gamma subunits of human CD3 joined by a 29-mer linker, Flag-tag at the C-terminus; also called recombinant human CD3
T1 chain: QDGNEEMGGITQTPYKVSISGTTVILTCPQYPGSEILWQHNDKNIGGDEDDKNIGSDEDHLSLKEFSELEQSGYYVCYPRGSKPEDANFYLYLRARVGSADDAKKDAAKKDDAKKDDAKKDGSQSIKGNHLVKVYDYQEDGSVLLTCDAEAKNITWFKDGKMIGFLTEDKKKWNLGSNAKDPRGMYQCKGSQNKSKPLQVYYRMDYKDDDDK

B1: H183/L072 VH K64L (antibody, name in Kabat numbering, V domains shown)
VH: QVQLVESGGGLVQPGRSLRLSCAASGFTFSNAWMHWVRQAPGKGLEWVAQIKDKGNAYAAYYAPSVLGRFTISRDDSKNSIYLQMNSLKTEDTAVYYCHYVHYASASTVLPAFGVDAWGQGTTVTVSS
VL: DIVMTQSPLSLPVTPGEPASISCQASQELVHMNRNTYLHWYQQKPGQAPRLLIYKVSNRFPGVPDRFSGSGSGTDFTLKISRVEAEDVGVYYCAQGTSVPFTFGQGTKLEIK
B2: H183/L072 VH M34F (antibody, name in Kabat numbering, V domains shown)
VH: B1 VH with M34F, L67K
VL: B1 VL
B3: H183/L072 VH N31L (antibody, name in Kabat numbering, V domains shown)
VH: B1 VH with N31L, L67K
VL: B1 VL
B4: H183/L072 VH N31G (antibody, name in Kabat numbering, V domains shown)
VH: B1 VH with N31G, L67K
VL: B1 VL
B5: H183/L072 VH K64P (antibody, name in Kabat numbering, V domains shown)
VH: B1 VH with L67P
VL: B1 VL
B6: H183/L072 VH M34N (antibody, name in Kabat numbering, V domains shown)
VH: B1 VH with M34N, L67K
VL: B1 VL
B7: H183/L072 VH M34Y (antibody, name in Kabat numbering, V domains shown)
VH: B1 VH with M34Y, L67K
VL: B1 VL
B8: H183/L072 VH M34D (antibody, name in Kabat numbering, V domains shown)
VH: B1 VH with M34D, L67K
VL: B1 VL
B9: H183/L072 VH N31K (antibody, name in Kabat numbering, V domains shown)
VH: B1 VH with N31K, L67K
VL: B1 VL
B10: H183/L072 VH M34T (antibody, name in Kabat numbering, V domains shown)
VH: B1 VH with M34T, L67K
VL: B1 VL
B11: H183/L072 VH M34R (antibody, name in Kabat numbering, V domains shown)
VH: B1 VH with M34R, L67K
VL: B1 VL
B12: H183/L072 VH M34P (antibody, name in Kabat numbering, V domains shown)
VH: B1 VH with M34P, L67K
VL: B1 VL
B13: H183/L072 VH N31S (antibody, name in Kabat numbering, V domains shown)
VH: B1 VH with N31S, L67K
VL: B1 VL
B14: H183/L072 VH N31R (antibody, name in Kabat numbering, V domains shown)
VH: B1 VH with N31R, L67K
VL: B1 VL
B15: H183/L072 VH N31A (antibody, name in Kabat numbering, V domains shown)
VH: B1 VH with N31A, L67K
VL: B1 VL
B16: H183/L072 VH M34I (antibody, name in Kabat numbering, V domains shown)
VH: B1 VH with M34I, L67K
VL: B1 VL
B17: H183/L072 VH N31F (antibody, name in Kabat numbering, V domains shown)
VH: B1 VH with N31F, L67K
VL: B1 VL
B18: H183/L072 VH M34H (antibody, name in Kabat numbering, V domains shown)
VH: B1 VH with M34H, L67K
VL: B1 VL
B19: H183/L072 VH N31I (antibody, name in Kabat numbering, V domains shown)
VH: B1 VH with N31I, L67K
VL: B1 VL
B20: H183/L072 VH M34K (antibody, name in Kabat numbering, V domains shown)
VH: B1 VH with M34K, L67K
VL: B1 VL
B21: H183/L072 VH N31W (antibody, name in Kabat numbering, V domains shown)
VH: B1 VH with N31W, L67K
VL: B1 VL
B22: H183/L072 VH L100dI (antibody, name in Kabat numbering, V domains shown)
VH: B1 VH with L67K, L110I
VL: B1 VL
B23: H183/L072 VH N31H (antibody, name in Kabat numbering, V domains shown)
VH: B1 VH with N31H, L67K
VL: B1 VL
B24: H183/L072 VH L100dM (antibody, name in Kabat numbering, V domains shown)
VH: B1 VH with L67K, L110M
VL: B1 VL
B25: H183/L072 VH M34E (antibody, name in Kabat numbering, V domains shown)
VH: B1 VH with M34E, L67K
VL: B1 VL
B26: H183/L072 VH L100dA (antibody, name in Kabat numbering, V domains shown)
VH: B1 VH with L67K, L110A
VL: B1 VL
B27: H183/L072 VH N31V (antibody, name in Kabat numbering, V domains shown)
VH: B1 VH with N31V, L67K
VL: B1 VL
B28: H183/L072 VH N31Q (antibody, name in Kabat numbering, V domains shown)
VH: B1 VH with N31Q, L67K
VL: B1 VL
B29: H183/L072 VH M34L (antibody, name in Kabat numbering, V domains shown)
VH: B1 VH with M34L, L67K
VL: B1 VL
B30: H183/L072 VH N31E (antibody, name in Kabat numbering, V domains shown)
VH: B1 VH with N31E, L67K
VL: B1 VL
B31: H183/L072 VH M34A (antibody, name in Kabat numbering, V domains shown)
VH: B1 VH with M34A, L67K
VL: B1 VL
B32: H183/L072 VH N53D (antibody, name in Kabat numbering, V domains shown)
VH: B1 VH with N56D, L67K
VL: B1 VL
B33: H183/L072 VH M34G (antibody, name in Kabat numbering, V domains shown)
VH: B1 VH with M34G, L67K
VL: B1 VL
B34: H183/L072 VH M34Q (antibody, name in Kabat numbering, V domains shown)
VH: B1 VH with M34Q, L67K
VL: B1 VL
B35: H183/L072 VH N31T (antibody, name in Kabat numbering, V domains shown)
VH: B1 VH with N31T, L67K
VL: B1 VL
B36: H183/L072 VH N31P (antibody, name in Kabat numbering, V domains shown)
VH: B1 VH with N31P, L67K
VL: B1 VL
B37: H183/L072 VH N31M (antibody, name in Kabat numbering, V domains shown)
VH: B1 VH with N31M, L67K
VL: B1 VL
B38: H183/L072 VH N53A (antibody, name in Kabat numbering, V domains shown)
VH: B1 VH with N56A, L67K
VL: B1 VL
B39: H183/L072 VH M34W (antibody, name in Kabat numbering, V domains shown)
VH: B1 VH with M34W, L67K
VL: B1 VL
B40: H183/L072 VH N31Y (antibody, name in Kabat numbering, V domains shown)
VH: B1 VH with N31Y, L67K
VL: B1 VL
B41: H183/L072 VH K64M (antibody, name in Kabat numbering, V domains shown)
VH: B1 VH with L67M
VL: B1 VL
B42: H183/L072 VH N31D (antibody, name in Kabat numbering, V domains shown)
VH: B1 VH with N31D, L67K
VL: B1 VL
B43: H183/L072 VH M34S (antibody, name in Kabat numbering, V domains shown)
VH: B1 VH with M34S, L67K
VL: B1 VL
B44: H183/L072 VH M34V (antibody, name in Kabat numbering, V domains shown)
VH: B1 VH with M34V, L67K
VL: B1 VL
B45: H183/L072 VH L100dP (antibody, name in Kabat numbering, V domains shown)
VH: B1 VH with L67K, L110P
VL: B1 VL

Target: T1, Human CD3eg linker
Assay: Biacore SPR, vs template H183/L072

Row | fold change of affinity | Binder
1 | 1.1 fold | B1
2 | 0.1 fold | B2
3 | 0.2 fold | B3
4 | 0.3 fold | B4
5 | 1.6 fold | B5
6 | 0 fold | B6
7 | 0 fold | B7
8 | 0 fold | B8
9 | 0.4 fold | B9
10 | 0 fold | B10
11 | 0 fold | B11
12 | 0 fold | B12
13 | 0.5 fold | B13
14 | 0.5 fold | B14
15 | 0.4 fold | B15
16 | 0.6 fold | B16
17 | 0.5 fold | B17
18 | 0 fold | B18
19 | 0.5 fold | B19
20 | 0 fold | B20
21 | 0.4 fold | B21
22 | 1.2 fold | B22
23 | 0.3 fold | B23

Row | fold change of affinity | Binder
24 | 1 fold | B24
25 | 0 fold | B25
26 | 1.2 fold | B26
27 | 0.5 fold | B27
28 | 0.2 fold | B28
29 | 0.7 fold | B29
30 | 0 fold | B30
31 | 0 fold | B31
32 | 0.4 fold | B32
33 | 0 fold | B33
34 | 0 fold | B34
35 | 0.6 fold | B35
36 | 0.1 fold | B36
37 | 0.2 fold | B37
38 | 0.7 fold | B38
39 | 0 fold | B39
40 | 0.3 fold | B40
41 | 1.1 fold | B41
42 | 0.1 fold | B42
43 | 0 fold | B43
44 | 0.1 fold | B44
45 | 1.4 fold | B45
